Starred links: 1 amine or outer side, 2 acyl side, 3 side chain; linkers in the order of their positions; H or OH if unused. Positions of bridges follow the written chain, without caps; N, C: chain ends. Non-standard residues stand in square brackets, D forms with d. *: point of attachment. Tyr(Me) = 4-OMe-Phe, COc1ccc(C[C@H](N[*:1])C(=O)[*:2])cc1; dPhe(4-CONH2) = NC(=O)c1ccc(C[C@@H](N)C(=O)O)cc1; dTyr(Me) = COc1ccc(C[C@@H](N[*:1])C(=O)[*:2])cc1; Phe(4-Cl) = N[C@@H](Cc1ccc(Cl)cc1)C(=O)O; dPhe(4-Cl) = N[C@H](Cc1ccc(Cl)cc1)C(=O)O; Bz = O=C(c1ccccc1)*; βAla = NCCC(=O)O
Experiments:
[1] = target: somatostatin receptor type 2 (SSTR2) (UniProt P30874 1-369); experiment: cell-based or functional assay
[2] = target: somatostatin receptor SSTR3 (UniProt P32745 1-418); experiment: cell-based or functional assay
somatostatin receptor SSTR3, sequence (P32745 whole entry): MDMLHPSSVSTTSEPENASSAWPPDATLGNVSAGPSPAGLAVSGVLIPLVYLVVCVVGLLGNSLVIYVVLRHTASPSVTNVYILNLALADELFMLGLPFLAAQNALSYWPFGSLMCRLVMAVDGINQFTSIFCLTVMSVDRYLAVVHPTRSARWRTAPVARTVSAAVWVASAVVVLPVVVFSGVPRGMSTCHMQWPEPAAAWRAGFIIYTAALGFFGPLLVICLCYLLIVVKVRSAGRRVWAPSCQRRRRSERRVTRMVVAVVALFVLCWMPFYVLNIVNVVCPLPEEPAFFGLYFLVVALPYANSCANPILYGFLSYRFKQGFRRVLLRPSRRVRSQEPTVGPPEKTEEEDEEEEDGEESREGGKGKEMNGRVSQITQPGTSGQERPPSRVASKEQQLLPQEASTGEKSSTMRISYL

somatostatin receptor type 2 (SSTR2), sequence (P30874 whole entry): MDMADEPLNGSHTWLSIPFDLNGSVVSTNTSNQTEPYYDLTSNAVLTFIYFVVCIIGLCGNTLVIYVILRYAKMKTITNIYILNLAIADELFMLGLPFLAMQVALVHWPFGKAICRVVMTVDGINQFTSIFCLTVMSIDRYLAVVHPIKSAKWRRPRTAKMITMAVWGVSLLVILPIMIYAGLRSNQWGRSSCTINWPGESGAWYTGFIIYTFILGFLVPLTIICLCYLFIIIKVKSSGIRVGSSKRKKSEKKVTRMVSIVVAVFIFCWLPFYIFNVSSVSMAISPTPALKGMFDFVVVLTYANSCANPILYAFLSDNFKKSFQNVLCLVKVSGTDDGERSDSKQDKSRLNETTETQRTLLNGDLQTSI

IC50 (PathHunter β-Arrestin, antagonist mode) [1] [nM]	IC50 (PathHunter β-Arrestin, antagonist mode) [2] [nM]	Binder
234	> 1000	H-[Phe(4-Cl)][dC]Y[dAph(Ser)]KTC[dY]-NH2 (disulfide 2-7) [Compound 16: H-Cpa-cyclo[DCys-Tyr-D-4-(Ser)Aph-Lys-Thr-Cys]-DTyr-NH2]
1.45	–	{2‑(phenylsulfonyl)acetyl}-[Phe(4-Cl)][dC]Y[dPhe(4-CONH2)]K(Me)TC[dY]-NH2 (disulfide 2-7) [Compound 51: PhSO2CH2(CO)-Cpa-cyclo[D-Cys-Tyr-D-Phe(4-carbamoyl)-Lys(Nε-Me)-Thr-Cys]-D-Tyr-NH2]
1.31	–	H-[Phe(4-Cl)][dC][Phe(4-Cl)][dPhe(4-CONH2)]K(Me)TC[dY]-NH2 (disulfide 2-7; SMILES CNCCCC[C@@H]1NC(=O)[C@@H](Cc2ccc(C(N)=O)cc2)NC(=O)[C@H](Cc2ccc(Cl)cc2)NC(=O)[C@H](NC(=O)[C@@H](N)Cc2ccc(Cl)cc2)CSSC[C@@H](C(=O)N[C@H](Cc2ccc(O)cc2)C(N)=O)NC(=O)[C@H]([C@@H](C)O)NC1=O) [Compound 48: H-Cpa-cyclo[D-Cys-Cpa-D-Phe(4-carbamoyl)-Lys(Nε-Me)-Thr-Cys]-D-Tyr-NH2]
14.6	–	H-[Phe(4-Cl)][dC][Tyr(Me)][dPhe(4-CONH2)]KTC[dTyr(Me)]-NH2 (disulfide 2-7; SMILES COc1ccc(C[C@@H]2NC(=O)[C@H](NC(=O)[C@@H](N)Cc3ccc(Cl)cc3)CSSC[C@@H](C(=O)N[C@H](Cc3ccc(OC)cc3)C(N)=O)NC(=O)[C@H]([C@@H](C)O)NC(=O)[C@H](CCCCN)NC(=O)[C@@H](Cc3ccc(C(N)=O)cc3)NC2=O)cc1) [Compound 45: H-Cpa-cyclo[DCys-4-OMe-Phe-D-(4-carbamoyl)Phe-Lys-Thr-Cys]-4-OMe-D-Phe-NH2]
417	> 1000	H-[Phe(4-Cl)][dC]Y[dAph(Cit)]KTC[dY]-NH2 (disulfide 2-7) [Compound 22: H-Cpa-cyclo[DCys-Tyr-D-4-(Cit)Aph-Lys-Thr-Cys]-DTyr-NH2]
104	> 1000	XXYXKTCX (HELM PEPTIDE1{[N[C@@H](Cc1ccc(Cl)cc1)C(=O)[*:2]].[dC].Y.[O=C([C@@H](Cc1ccc(N[*:3])cc1)N[*:1])[*:2]].K.T.C.[dY].[am]}|PEPTIDE2{[ac].G}$PEPTIDE1,PEPTIDE2,4:R3-2:R2|PEPTIDE1,PEPTIDE1,2:R3-7:R3$$$V2.0; SMILES CC(=O)NCC(=O)Nc1ccc(C[C@H]2NC(=O)[C@H](Cc3ccc(O)cc3)NC(=O)[C@H](NC(=O)[C@@H](N)Cc3ccc(Cl)cc3)CSSC[C@@H](C(=O)N[C@H](Cc3ccc(O)cc3)C(N)=O)NC(=O)[C@H]([C@@H](C)O)NC(=O)[C@H](CCCCN)NC2=O)cc1) [Compound 9: H-Cpa-cyclo[DCys-Tyr-D-4-(Gly-Ac)Aph-Lys-Thr-Cys]-DTyr-NH2]
2.86	–	H-[βAla][Phe(4-Cl)][dC]Y[dPhe(4-CONH2)]K(Me)TC[dY]-NH2 (disulfide 3-8; SMILES CNCCCC[C@@H]1NC(=O)[C@@H](Cc2ccc(C(N)=O)cc2)NC(=O)[C@H](Cc2ccc(O)cc2)NC(=O)[C@H](NC(=O)[C@H](Cc2ccc(Cl)cc2)NC(=O)CCN)CSSC[C@@H](C(=O)N[C@H](Cc2ccc(O)cc2)C(N)=O)NC(=O)[C@H]([C@@H](C)O)NC1=O) [Compound 49: H-βAla-Cpa-cyclo[DCys-Tyr-DPhe(4-CONH2)-Lys(Me)-Thr-Cys]-DTyr-NH2]
> 1000	> 1000	H-[Phe(4-Cl)][dC]Y[dAph(Asp)]KTC[dY]-NH2 (disulfide 2-7) [Compound 18: H-Cpa-cyclo[DCys-Tyr-D-4-(Asp)Aph-Lys-Thr-Cys]-DTyr-NH2]
> 1000	> 1000	H-[Phe(4-Cl)][dC]Y[dAph(Gln)]KTC[dY]-NH2 (disulfide 2-7) [Compound 21: H-Cpa-cyclo[DCys-Tyr-D-4-(Gln)Aph-Lys-Thr-Cys]-DTyr-NH2]
84	> 1000	XXYXKTCX (HELM PEPTIDE1{[N[C@@H](Cc1ccc(Cl)cc1)C(=O)[*:2]].[dC].Y.[O=C([C@@H](Cc1ccc(N[*:3])cc1)N[*:1])[*:2]].K.T.C.[dY].[am]}|PEPTIDE2{G}$PEPTIDE1,PEPTIDE2,4:R3-1:R2|PEPTIDE1,PEPTIDE1,2:R3-7:R3$$$V2.0; SMILES C[C@@H](O)[C@@H]1NC(=O)[C@H](CCCCN)NC(=O)[C@@H](Cc2ccc(NC(=O)CN)cc2)NC(=O)[C@H](Cc2ccc(O)cc2)NC(=O)[C@H](NC(=O)[C@@H](N)Cc2ccc(Cl)cc2)CSSC[C@@H](C(=O)N[C@H](Cc2ccc(O)cc2)C(N)=O)NC1=O) [Compound 8: H-Cpa-cyclo[DCys-Tyr-D-4-(Gly)Aph-Lys-Thr-Cys]-DTyr-NH2]
2.33	–	succinamoyl-[Phe(4-Cl)][dC]Y[dPhe(4-CONH2)]K(Me)TC[dY]-NH2 (disulfide 2-7) [Compound 54: H2N(CO)(CH2)2(CO)-Cpa-cyclo[D-Cys-Tyr-D-Phe(4-carbamoyl)-Lys(Nε-Me)-Thr-Cys]-D-Tyr-NH2]
181	> 1000	H-[Phe(4-Cl)][dC]Y[dHoCit]KTC[dY]-NH2 (disulfide 2-7) [Compound 2: H-Cpa-cyclo[DCys-Tyr-DHoCit-Lys-Thr-Cys]-DTyr-NH2]
1.51	–	H-[Phe(4-Cl)][dC][Phe(4-Cl)][dPhe(4-CONH2)]K(Me)TC[dPhe(4-Cl)]-NH2 (disulfide 2-7; SMILES CNCCCC[C@@H]1NC(=O)[C@@H](Cc2ccc(C(N)=O)cc2)NC(=O)[C@H](Cc2ccc(Cl)cc2)NC(=O)[C@H](NC(=O)[C@@H](N)Cc2ccc(Cl)cc2)CSSC[C@@H](C(=O)N[C@H](Cc2ccc(Cl)cc2)C(N)=O)NC(=O)[C@H]([C@@H](C)O)NC1=O) [Compound 47: H-Cpa-cyclo[D-Cys-Cpa-D-Phe(4-carbamoyl)-Lys(Nε-Me)-Thr-Cys]-D-Cpa-NH2]
243	> 1000	H-[Phe(4-Cl)][dC]Y[dAph(2-(4-morpholinyl)ethyl)]KTC[dY]-NH2 (disulfide 2-7) [Compound 11: H-Cpa-cyclo[DCys-Tyr-D-4-(2-(4-morpholinyl)ethyl)Aph-Lys-Thr-Cys]-DTyr-NH2]
334	> 1000	H-[Phe(4-Cl)][dC]Y[dTyr(O-2-(4-morpholinyl)ethyl)]KTC[dY]-NH2 (disulfide 2-7) [Compound 13: H-Cpa-cyclo[DCys-Tyr-D-(2-(4-morpholinyl)ethyl)Tyr-Lys-Thr-Cys]-DTyr-NH2]
166	> 1000	H-[Phe(4-Cl)][dC]Y[dPhe(4-acetamidomethyl)]KTC[dY]-NH2 (disulfide 2-7) [Compound 6: H-Cpa-cyclo[DCys-Tyr-D-(4-acetamidomethyl)Phe-Lys-Thr-Cys]-DTyr-NH2]
1.73	–	{3,3‑dimethylbutanoyl}-[Phe(4-Cl)][dC]Y[dPhe(4-CONH2)]K(Me)TC[dY]-NH2 (disulfide 2-7) [Compound 52: t-BuCH2(CO)-Cpa-cyclo[D-Cys-Tyr-D-Phe(4-carbamoyl)-Lys(Nε-Me)-Thr-Cys]-D-Tyr-NH2]
10.7	–	H-[Phe(4-Cl)][dC]Y[dPhe(4-CONH2)]KTC[dTyr(Me)]-NH2 (disulfide 2-7; SMILES COc1ccc(C[C@@H](NC(=O)[C@@H]2CSSC[C@@H](NC(=O)[C@@H](N)Cc3ccc(Cl)cc3)C(=O)N[C@@H](Cc3ccc(O)cc3)C(=O)N[C@H](Cc3ccc(C(N)=O)cc3)C(=O)N[C@@H](CCCCN)C(=O)N[C@@H]([C@@H](C)O)C(=O)N2)C(N)=O)cc1) [Compound 44: H-Cpa-cyclo[DCys-Tyr-D-(4-carbamoyl)Phe-Lys-Thr-Cys]-4-OMe-D-Phe-NH2]
1.11	–	Bz-G[Phe(4-Cl)][dC]Y[dPhe(4-CONH2)]K(Me)TC[dY]-NH2 (disulfide 3-8; SMILES CNCCCC[C@@H]1NC(=O)[C@@H](Cc2ccc(C(N)=O)cc2)NC(=O)[C@H](Cc2ccc(O)cc2)NC(=O)[C@H](NC(=O)[C@H](Cc2ccc(Cl)cc2)NC(=O)CNC(=O)c2ccccc2)CSSC[C@@H](C(=O)N[C@H](Cc2ccc(O)cc2)C(N)=O)NC(=O)[C@H]([C@@H](C)O)NC1=O) [Compound 50: Ph(CO)NHCH2(CO)-Cpa-cyclo[D-Cys-Tyr-D-Phe(4-carbamoyl)-Lys(Nε-Me)-Thr-Cys]-D-Tyr-NH2]
4.28	–	picolinoyl-[Phe(4-Cl)][dC]Y[dPhe(4-CONH2)]K(Me)TC[dY]-NH2 (disulfide 2-7) [Compound 53: 2-Pyridyl(CO)-Cpa-cyclo[D-Cys-Tyr-D-Phe(4-carbamoyl)-Lys(Nε-Me)-Thr-Cys]-D-Tyr-NH2]
> 1000	> 1000	H-[Phe(4-Cl)][dC]Y[dAph(Asn)]KTC[dY]-NH2 (disulfide 2-7) [Compound 19: H-Cpa-cyclo[DCys-Tyr-D-4-(Asn)Aph-Lys-Thr-Cys]-DTyr-NH2]
924	> 1000	H-[Phe(4-Cl)][dC]Y[dAph(Glu)]KTC[dY]-NH2 (disulfide 2-7) [Compound 20: H-Cpa-cyclo[DCys-Tyr-D-4-(Glu)Aph-Lys-Thr-Cys]-DTyr-NH2]
> 1000	> 1000	H-[Phe(4-Cl)][dC]Y[dAph(Lys)]KTC[dY]-NH2 (disulfide 2-7) [Compound 17: H-Cpa-cyclo[DCys-Tyr-D-4-(Lys)Aph-Lys-Thr-Cys]-DTyr-NH2]
213	> 1000	H-[Phe(4-Cl)][dC]Y[dPhe(4-aminomethyl)]KTC[dY]-NH2 (disulfide 2-7) [Compound 5: H-Cpa-cyclo[DCys-Tyr-D-(4-aminomethyl)Phe-Lys-Thr-Cys]-DTyr-NH2]
0.398	–	H-[Phe(4-Cl)][dC]Y[dPhe(4-CONH2)]K(Me)TC[dPhe(4-Cl)]-NH2 (disulfide 2-7; SMILES CNCCCC[C@@H]1NC(=O)[C@@H](Cc2ccc(C(N)=O)cc2)NC(=O)[C@H](Cc2ccc(O)cc2)NC(=O)[C@H](NC(=O)[C@@H](N)Cc2ccc(Cl)cc2)CSSC[C@@H](C(=O)N[C@H](Cc2ccc(Cl)cc2)C(N)=O)NC(=O)[C@H]([C@@H](C)O)NC1=O) [Compound 46: H-Cpa-cyclo[D-Cys-Tyr-D-Phe(4-carbamoyl)-Lys(Nε-Me)-Thr-Cys]-D-Cpa-NH2]
458	> 1000	H-[Phe(4-Cl)][dC]Y[dAph(Val)]KTC[dY]-NH2 (disulfide 2-7) [Compound 23: H-Cpa-cyclo[DCys-Tyr-D-4-(Val)Aph-Lys-Thr-Cys]-DTyr-NH2]
> 1000	> 1000	H-[Phe(4-Cl)][dC]Y[dAph(Pro)]KTC[dY]-NH2 (disulfide 2-7) [Compound 10: H-Cpa-cyclo[DCys-Tyr-D-4-(Pro)Aph-Lys-Thr-Cys]-DTyr-NH2]

Source: patent US20190040102A1 (CDRD VENTURES, published 2019)
